Laboratory results taken from US20150354006.

Tested on: recombinant nucleosome

Sequence of NSD2 E1087Q mutation (Example 7) (chain, as listed by the source E1087Q): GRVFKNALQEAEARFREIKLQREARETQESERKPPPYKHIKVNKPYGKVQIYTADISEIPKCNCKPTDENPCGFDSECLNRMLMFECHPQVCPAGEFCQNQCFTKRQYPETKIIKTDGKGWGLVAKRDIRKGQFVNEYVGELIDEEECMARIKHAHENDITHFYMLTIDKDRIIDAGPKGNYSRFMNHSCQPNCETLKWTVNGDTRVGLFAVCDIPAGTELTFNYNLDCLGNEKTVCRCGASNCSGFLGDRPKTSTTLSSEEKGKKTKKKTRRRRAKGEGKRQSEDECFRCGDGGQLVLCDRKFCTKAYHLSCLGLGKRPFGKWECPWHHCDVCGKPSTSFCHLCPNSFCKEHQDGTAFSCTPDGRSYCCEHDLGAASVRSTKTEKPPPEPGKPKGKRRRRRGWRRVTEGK
Sequence of NSD2 E1099K mutant protein, purified (Example 7) (chain, as listed by the source E1099K): as the sequence (chain, as listed by the source E1087Q) above, with Q133E, E145K counted along it

| Substance | SAH production by LC/MS/MS in an enzymatic reaction with SAM and nucleosome (FIG. 9) |
| --- | --- |
| NSD2 E1087Q mutation (Example 7) | the NSD2 E1087Q mutation has less N-methyltransferase activity in each case |
| NSD2 E1099K mutant protein, purified (Example 7) | the NSD2 E1099K protein gains extra activity on recombinant nucleosome compared to NSD2 WT |
